This note sets out measurements from publication PMC4157633 (Laboratory investigation; a journal of technical methods …, 2014).

B5: human carcinoembryonic antigen (hCEA) protein, purified (natural protein, UniProt P06731 35-685, looked up)
chain: KLTIESTPFNVAEGKEVLLLVHNLPQHLFGYSWYKGERVDGNRQIIGYVIGTQQATPGPAYSGREIIYPNASLLIQNIIQNDTGFYTLHVIKSDLVNEEATGQFRVYPELPKPSISSNNSKPVEDKDAVAFTCEPETQDATYLWWVNNQSLPVSPRLQLSNGNRTLTLFNVTRNDTASYKCETQNPVSARRSDSVILNVLYGPDAPTISPLNTSYRSGENLNLSCHAASNPPAQYSWFVNGTFQQSTQELFIPNITVNNSGSYTCQAHNSDTGLNRTTVTTITVYAEPPKPFITSNNSNPVEDEDAVALTCEPEIQNTTYLWWVNNQSLPVSPRLQLSNDNRTLTLLSVTRNDVGPYECGIQNELSVDHSDPVILNVLYGPDDPTISPSYTYYRPGVNLSLSCHAASNPPAQYSWLIDGNIQQHTQELFISNITEKNSGLYTCQANNSASGHSRTTVKTITVSAELPKPSISSNNSKPVEDKDAVAFTCEPEAQNTTYLWWVNGQSLPVSPRLQLSNGNRTLTLFNVTRNDARAYVCGIQNSVSANRSDPVTLDVLYGPDTPIISPPDSSYLSGANLNLSCHSASNPSPQYSWRINGIPQQHTQVLFIAKITPNNNGTYACFVSNLATGRNNSIVKSITVSASGTSPGLSA

Experiment [1] addresses B5. As to the kind of experiment: ELISA.
In experiment [2] the target is anti-EGFR VHH122-fiber-fibritin chimera displayed on the AdVHH122Luc vector (human adenovirus serotype 5 | …). The experiment can be described thus: ELISA.

B1: anti-hCEA VHH JJB-B2, thioredoxin fusion protein (VHH)
VHH: QVQLVETGGGLVQPGGSLRLSCAASESIFSTYAMGWYRQAPGKQRELVAAITTNDIANYADSVKGRFTISRDNAKNTVYLQMNSLNPEDTAVYYCNAIFPPYNYWGQGTQVTVSS
Consider B1, for which the EC50 in experiment [1] was roughly 0.2 nM.

B2: anti-hCEA VHH JJB-A3, thioredoxin fusion protein (VHH)
VHH: QVQLVETGGGLVQPGGSLRLSCAASGRISDINAMGWYRQAPGKQRELVAAITSVGSNYVDSVKGRFTISKDNAKNTVYLQMYSLNPEDTAVYYCNTQCGTWLVCDGRDQWGKGTLVTVSS
The molecule B2 came in with an EC50 in experiment [1] of roughly 0.15 nM.

B3: anti-hCEA VHH JJB-D1, thioredoxin fusion protein (VHH)
VHH: QVQLVESGGLVQAGGSLRPSCAASGSIFLQNAMGWYRQVPGKQRELVAAITSVDSTNYADSVKGRFTISRDNAKNTVYLQMNSLKPEDTAVYYCNAPWNSDYHWGKGTLVTVSS
In turn, B3 returned an EC50 in experiment [1] of roughly 1 nM.

B4: anti-hCEA VHH JJB-B5, thioredoxin fusion protein (VHH)
VHH: QVQLVETGGGLVQPGGSLRPSCTASGSIFSIYAMGWYRQASGKQRELVALITRDEVFNYADSVKGRFTISRDNAKDTVYLQMNSLKPEDTAVYYCWVETVNDHYNSGVEDYWGQGTQVTVSS
B4 yielded an EC50 in experiment [1] of roughly 50 nM. For B5, in experiment [2], the binding result is on record as “no binding”.
